Article PMC11903878, “Structural mechanisms for centrosomal recruitment and organization of the microtubule nucleator γ-TuRC” (Nature Communications, 2025)

What was measured:
[1] = molecular target: X. laevis 2×FLAG-TEV-NEDD1-3C-GCP3(1–240)/ALFA-MZT1 complex (X. laevis) (UniProt O73787); experiment: mass photometry; Refeyn TwoMP; purified NEDD1-N-GCP3/MZT1 diluted to a final concentration below 40 nM; tetramer of the fusion/MZT1 protomer
[2] = molecular target: T1, human Augmin TII N-clamp with HAUS8∆[1-138] (human, UniProt Q9NVX0 1-118; Q7Z4H7 1-269; Q99871 1-299; Q9BT25 139-248); experiment: pull-down; 25 μg recombinant EGFP-tagged Augmin TII N-clamp∆H8N added to lysate of HEK293 cells overexpressing POC5-HA or POC5^mut-HA, captured on GFP binder beads, 1 hr 4 °C; 50 mM Tris pH 7.5, 150 mM NaCl; HA blot; settings: one partner purified
T1 construct: HAUS2, human, codons 1 to 118; HAUS6, human, codons 1 to 269; HAUS7, human, codons 1 to 299, followed by a TEV-EGFP-8xHis cleavable tag; HAUS8, human, codons 1 to 248 with the N-terminal truncation HAUS8∆[1-138]; The range 139-248 of HAUS8 is worked out from the printed limits 1 to 248 and the deletion 1-138; also called Augmin N-clamp; Augmin TII N-clamp∆H8N; source: E. coli BL21 CodonPlus-RIL, …

[3] = molecular target: the molecule itself; experiment: cryo-EM structure; single particle analysis of the native γ-TuRC affinity-purified from X. laevis egg extract; particles with stoichiometric NEDD1/N-GCP3/MZT1 grapnel; AlphaFold2 models flexibly fitted (MDFF) into the density

T1 sequence (Q9NVX0 1-118, chain 1 of 4): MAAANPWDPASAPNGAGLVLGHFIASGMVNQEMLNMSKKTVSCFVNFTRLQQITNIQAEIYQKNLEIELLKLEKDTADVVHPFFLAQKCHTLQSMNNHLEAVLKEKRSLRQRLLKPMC
T1 sequence (Q7Z4H7 1-269, chain 2 of 4): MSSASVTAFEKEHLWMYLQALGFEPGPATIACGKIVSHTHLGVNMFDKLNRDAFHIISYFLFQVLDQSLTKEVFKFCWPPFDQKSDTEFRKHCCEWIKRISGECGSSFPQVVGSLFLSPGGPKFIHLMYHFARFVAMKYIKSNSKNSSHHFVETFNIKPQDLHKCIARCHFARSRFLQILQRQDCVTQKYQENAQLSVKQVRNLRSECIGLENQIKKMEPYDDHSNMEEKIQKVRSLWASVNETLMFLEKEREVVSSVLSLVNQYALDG
T1 sequence (Q99871 1-299, chain 3 of 4): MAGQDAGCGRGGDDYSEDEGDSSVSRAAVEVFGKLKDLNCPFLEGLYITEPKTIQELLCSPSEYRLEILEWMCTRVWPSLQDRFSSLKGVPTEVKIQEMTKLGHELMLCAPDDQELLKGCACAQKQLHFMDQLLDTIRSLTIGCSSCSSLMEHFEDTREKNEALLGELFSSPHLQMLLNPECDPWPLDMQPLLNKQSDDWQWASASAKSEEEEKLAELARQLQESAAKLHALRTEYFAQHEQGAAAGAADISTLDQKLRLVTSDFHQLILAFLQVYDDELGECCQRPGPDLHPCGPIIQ
T1 sequence (Q9BT25 139-248, chain 4 of 4): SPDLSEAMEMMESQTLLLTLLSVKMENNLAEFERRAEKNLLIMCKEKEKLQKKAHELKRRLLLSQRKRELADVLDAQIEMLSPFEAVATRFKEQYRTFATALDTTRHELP

X. laevis 2×FLAG-TEV-NEDD1-3C-GCP3(1–240)/ALFA-MZT1 complex (from UniProt O73787 1-240; Q5U4M5 1-72)
stoichiometry N [1]: 4

B1: POC5^mut-HA (S224E, R227A, K228A, V231A, S234K, L235A) (natural protein, human, UniProt Q8NA72 1-575, looked up)
chain: MSSDEEKYSLPVVQNDSSRGSSVSSNLQEEYEELLHYAIVTPNIEPCASQSSHPKGELVPDVRISTIHDILHSQGNNSEVRETAIEVGKGCDFHISSHSKTDESSPVLSPRKPSHPVMDFFSSHLLADSSSPATNSSHTDAHEILVSDFLVSDENLQKMENVLDLWSSGLKTNIISELSKWRLNFIDWHRMEMRKEKEKHAAHLKQLCNQINELKELQKTFEIEIGAADEAISKASHAIGKQKEKIELMRTFFHWRIGHVRARQDVYEGKLADQYYQRTLLKKVWKVWRSVVQKQWKDVVERACQARAEEVCIQISNDYEAKVAMLSGALENAKAEIQRMQHEKEHFEDSMKKAFMRGVCALNLEAMTIFQNRNDAGIDSTNNKKEEYGPGVQGKEHSAHLDPSAPPMPLPVTSPLLPSPPAAVGGASATAVPSAASMTSTRAASASSVHVPVSALGAGSAATAASEEMYVPRVVTSAQQKAGRTITARITGRCDFASKNRISSSLAIMGVSPPMSSVVVEKHHPVTVQTIPQATAAKYPRTIHPESSTSASRSLGTRSAHTQSLTSVHSIKVVD
notes: POC5, human, with six point mutations in the predicted POC5-Augmin interface; source: HEK293 (Tet-On 3G), overexpressed, in lysate; not shown: HA, C-terminal, kept
fold reduction against wild-type [2]: 3 fold

B2: NEDD1 (neural precursor cell expressed, developmentally down-regulated 1), X. laevis, endogenous (natural protein, X. laevis (endogenous in egg extract), UniProt A0A8J0Q0Y8 1-671, looked up)
chain: MESRGGGGRVRLPGTTMQDNIRFVSAGDDVKIWDYSSMTTVEQFNPHSASHPVSSLCWSSNNHFLVTASGSGDKIVVSSCKSKPVPLLELAEGKKQTCVNLNSSSQYVVSGGLDNTVNIWDLKSKRLHRSLKDHKDEVTCVTFNANDCYVASGSMSGEIILHNVTTNLSSTPFGHGSSQPIRHLKYSYVKKSLLGTVSDSGSVTLWDANSQNPYHVFESAHKAPASGICFSPVNDLLLVTVGLDKRIICYDVSSKILLQTVVAESPLTAVDFMPDGATLAVGSSRGKIYLYDLRMLSSPVKTVSAHKTSVQCIQFQHSNIYKSSKGPSSKSSILSTAVNKKPSTKTAAGGTQSANITKDLPPSAISSLPQPVMPVDSKVLRVNDDKSGFPRSTSLDIIPSKETDFAKTSDYKSIDSFGRSSLGDIFSPVRDDASHFRGAEDLSCKGNDLDYLPQFSTIPSSRRNPVGANTQGIHGSPLHLIIESPIKEEDESQDSELKTRKPQLLKQDFRESSSKPASVDQNNLNNSPINSVTRTPEAIEKTGHQILSQLKSDVPAHGTKIASPKVAATMSTQLASSLSEKIADTLASDRTGAPLTAIQINFIKNMIEETLDDFREACHRDIVNLQVEMIKQFHIQSSEIQMLLERYSLNESLVSEIEKLREENKRLRANF
notes: NEDD1, X. laevis, endogenous; NM_001094388.1 is printed for the cDNA of the recombinant constructs; also called NEDD1^C (its C-terminus); source: endogenous, X. laevis egg extract; co-purified with the γ-TuRC
stoichiometry N [3]: 4
